According to publication PMC9652331, “Cryo-EM structures of human m^6A writer complexes” (Cell Research, 2022):

Target: the molecule itself
Test: cross-linking; BS3 XL-MS of purified MACOM (Fig. S4a, b): 0.5 mM BS3, 50 mM HEPES pH 7.5, 100 mM KCl, 5% glycerol, 25 °C, 2 h; pLink2

B1: Wilms' tumor 1-associated protein (WTAP), full length, N-6× His-WTAP (natural protein, human, UniProt Q15007 1-396, looked up)
chain: MTNEEPLPKKVRLSETDFKVMARDELILRWKQYEAYVQALEGKYTDLNSNDVTGLRESEEKLKQQQQESARRENILVMRLATKEQEMQECTTQIQYLKQVQQPSVAQLRSTMVDPAINLFFLKMKGELEQTKDKLEQAQNELSAWKFTPDSQTGKKLMAKCRMLIQENQELGRQLSQGRIAQLEAELALQKKYSEELKSSQDELNDFIIQLDEEVEGMQSTILVLQQQLKETRQQLAQYQQQQSQASAPSTSRTTASEPVEQSEATSKDCSRLTNGPSNGSSSRQRTSGSGFHREGNTTEDDFPSSPGNGNKSSNSSEERTGRGGSGYVNQLSAGYESVDSPTGSENSLTHQSNDTDSSHDPQEEKAVSGKGNRTVGSRHVQNGLDSSVNVQGSVL
notes: Wilms' tumor 1-associated protein (WTAP), human, full length; Stands as a homodimer in the MACOM complexes (two copies, WTAP-a and WTAP-b); No removal of the His tag is described; also called WTAP-a; WTAP-b; source: High Five insect cells, co-expressed with the other MACOM components, purified as a complex (Ni-NTA, STREP beads, SEC); not shown: 6× His, N-terminal, kept
B1: binds.
